# Assay results as given in article PMC5722371.
# Several values for one entry are separate records, joined by “and”; a condition that tells them apart may be missing. Equal values may be shown once. Read-outs that look alike come from different tables or passages of the source.
# Experiments:
# [1] = target: HU (Haemophilus influenzae) (UniProt P43722); experiment: ITC; details: cited from earlier work
# [2] = target: Neisseria meningitides DMP19 (DNA mimic protein 19 kDa), tag free (Neisseria meningitides); experiment: ITC; ITC200, 300 μM HU-His6 dimer in the syringe into 30 μM DMP19 monomer in the cell, 20 mM Tris pH 7.4, 50 mM NaCl, 25°C, 20 injections of 2 μl
# [3] = target: Neisseria meningitides DMP19 (DNA mimic protein 19 kDa), tag free (Neisseria meningitides); experiment: as above; remark: listed apart in the source
# [4] = target: C-terminal His6-tagged Neisseria HU (not stated (Neisseria)); experiment: SEC; Superose 12, 20 mM Tris pH 7.4, 100 mM NaCl; 750 μM HU-His6 or 1500 μM tag-free DMP19 alone, or both together; MW from Kav against four standards
# [5] = target: Neisseria meningitides DMP19 (DNA mimic protein 19 kDa), tag free (Neisseria meningitides); experiment: as above
substance,measurement,setting,value
HI1450 (from UniProt P44199),Kd,[1],3000 nM
C-terminal His6-tagged Neisseria HU (natural protein),Kd,[2],500 nM
same,Kd,[3],380 nM and 490 nM and 640 nM
same,stoichiometry N,[4],2
"Neisseria meningitides DMP19 (DNA mimic protein 19 kDa), tag free (natural protein)",stoichiometry N,[5],2
